Experiment [1] has as its target Pin1 (Example 6, construct not stated) (human) (UniProt Q13526). Description: fluorescence anisotropy. (In general: Polarisation of emitted light reports the rotation of a fluorescent probe.)
Experiment [2] shares this target. Description: FA competition; competitor probe FITC-labeled peptide 1 (100 nM), Pin1 400 nM.
Experiment [3] addresses bovine serum albumin (bovine) (UniProt P02769). The experiment in a line: binding test against a panel of arbitrarily selected proteins.
Experiment [4] concerns the target Pin1 (Example 6, construct not stated) (human) (UniProt Q13526). Description: cell-based or functional assay.

The values below come from patent publication US20170355730A1.

The term Kd denotes the equilibrium constant for the complex coming apart. One may read the IC50 as the concentration needed to halve the response being measured. A low value points to greater potency in that assay.

Starred links: 1 amine or outer side, 2 acyl side, 3 side chain; linkers in the order of their positions; H or OH if unused. Non-standard residues stand in square brackets, D forms with d. Primed or numbered codes have the meaning given here. No end group written: not given here. Trimesoyl = O=C(c1cc(C(=O)[*:2])cc(C(=O)[*:3])c1)[*:1]; Phe(3,4-F2) = N[C@@H](Cc1ccc(F)c(F)c1)C(=O)O; Phe(4-Br) = N[C@@H](Cc1ccc(Br)cc1)C(=O)O; Phe(4-Cl) = N[C@@H](Cc1ccc(Cl)cc1)C(=O)O; Phe(4-F) = N[C@@H](Cc1ccc(F)cc1)C(=O)O; dPhe(4-F) = N[C@H](Cc1ccc(F)cc1)C(=O)O; 2Nal = N[C@@H](Cc1ccc2ccccc2c1)C(=O)O; Pip′ = L-homoproline (pipecolyl); Dap = NC[C@H](N)C(=O)O; Sar = CNCC(=O)O

Chain of bovine serum albumin (bovine) (P02769 25-607 limits assumed): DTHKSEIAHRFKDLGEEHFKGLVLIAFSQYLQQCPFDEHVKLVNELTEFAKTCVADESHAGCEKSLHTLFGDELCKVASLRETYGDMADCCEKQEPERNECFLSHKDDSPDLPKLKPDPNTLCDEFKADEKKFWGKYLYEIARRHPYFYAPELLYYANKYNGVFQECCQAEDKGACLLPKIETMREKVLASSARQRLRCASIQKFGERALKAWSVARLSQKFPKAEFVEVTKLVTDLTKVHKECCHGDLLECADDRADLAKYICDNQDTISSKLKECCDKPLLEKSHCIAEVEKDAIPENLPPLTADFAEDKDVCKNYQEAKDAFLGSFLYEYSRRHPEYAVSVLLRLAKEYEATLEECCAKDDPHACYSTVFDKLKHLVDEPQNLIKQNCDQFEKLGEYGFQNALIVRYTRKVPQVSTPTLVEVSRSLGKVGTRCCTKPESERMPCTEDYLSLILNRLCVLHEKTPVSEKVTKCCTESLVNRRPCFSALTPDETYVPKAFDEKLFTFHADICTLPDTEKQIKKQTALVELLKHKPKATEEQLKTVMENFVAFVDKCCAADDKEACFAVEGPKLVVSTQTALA

B1: peptide 30 (Table 18) (peptide)
peptide: Trimesoyl-[dF][Phe(4-Cl)][dT][Pip′][2Nal]RA[dF][Dap]F[2Nal]RRRR[Dap]K
modifications: linker (positions not given here) via Trimesoyl; not fully specified (C-terminus, bridges); printed as bicyclo[Tm-(D-Phe-4-ClPhe-D-Thr-Pip-Nal-Arg-Ala-D-Phe)-Dap-(Phe-Nal-Arg-Arg-Arg-Arg-Dap)]-Lys
The molecule B1 had a Kd in experiment [1] of 780 nM.

B2: peptide 18 (Table 18) (peptide)
peptide: Trimesoyl-P[Sar][dD][Pip′][2Nal]RV[dA][Dap]F[2Nal]RRRR[Dap]K-NH2
modifications: linker (positions not given here) via Trimesoyl; not fully specified (some residues, bridges); printed as bicyclo[Tm-(Pro-Sar-D-Asp-Pip-Nal-Arg-Val-D-Ala)-Dap-(Phe-Nal-Arg-Arg-Arg-Arg-Dap)]-Lys
B2: the Kd in experiment [1] turned out to be 1750 nM. This Kd lies about 2.2-fold higher than the previous one.

B3: peptide 20 (Table 18) (peptide)
peptide: Trimesoyl-P[Sar][dD][Pip′][2Nal]RD[dA][Dap]F[2Nal]RRRR[Dap]K-NH2
modifications: linker (positions not given here) via Trimesoyl; not fully specified (some residues, bridges); printed as bicyclo[Tm-(Pro-Sar-D-Asp-Pip-Nal-Arg-Asp-D-Ala)-Dap-(Phe-Nal-Arg-Arg-Arg-Arg-Dap)]-Lys
With B3, the Kd in experiment [1] amounted to 3190 nM.

B4: peptide 21 (Table 18) (peptide)
peptide: Trimesoyl-[dF][Phe(4-F)][dT][Pip′][2Nal]RS[dF][Dap]F[2Nal]RRRR[Dap]K-NH2
modifications: linker (positions not given here) via Trimesoyl; not fully specified (some residues, bridges); printed as bicyclo[Tm-(D-Phe-Fpa-D-Thr-Pip-Nal-Arg-Ser-D-Phe)-Dap-(Phe-Nal-Arg-Arg-Arg-Arg-Dap)]-Lys
B4 showed a Kd in experiment [1] of 570 nM.

B5: peptide 31 (Table 18) (peptide)
peptide: Trimesoyl-[dF]H[dT][Pip′][2Nal]RA[dF][Dap]F[2Nal]RRRR[Dap]K
modifications: linker (positions not given here) via Trimesoyl; not fully specified (C-terminus, bridges); printed as bicyclo[Tm-(D-Phe-His-D-Thr-Pip-Nal-Arg-Ala-D-Phe)-Dap-(Phe-Nal-Arg-Arg-Arg-Arg-Dap)]-Lys
The molecule B5 had a Kd in experiment [1] of 1680 nM. Against the preceding molecule, the Kd is about 2.9-fold higher.

B6: peptide 26 (Table 18) (peptide)
peptide: Trimesoyl-[dF][Phe(4-F)][dT][Pip′][2Nal]RG[dA][Dap]F[2Nal]RRRR[Dap]K-NH2
modifications: linker (positions not given here) via Trimesoyl; not fully specified (some residues, bridges); printed as bicyclo[Tm-(D-Phe-4-Fpa-D-Thr-Pip-Nal-Arg-Gly-D-Ala)-Dap-(Phe-Nal-Arg-Arg-Arg-Arg-Dap)]-Lys
In experiment [1], B6 came in with a Kd of 740 nM.

B7: peptide 28 (Table 18) (peptide)
peptide: Trimesoyl-[dF]F[dT][Pip′][2Nal]RA[dF][Dap]F[2Nal]RRRR[Dap]K
modifications: linker (positions not given here) via Trimesoyl; not fully specified (some residues, C-terminus, bridges); printed as bicyclo[Tm-(D-Phe-Phe-D-Thr-Pip-Nal-Arg-Ala-D-Phe)-Dap-(Phe-Nal-Arg-Arg-Arg-Arg-Dap)]-Lys
On to B7, for which, in experiment [1], the Kd was determined as 1260 nM.

B8: peptide 37 (Table 18) (peptide)
peptide: Trimesoyl-[dPhe(4-F)][Phe(4-F)][dT][Pip′][2Nal]RA[dF][Dap]F[2Nal]RRRR[Dap]K
modifications: linker (positions not given here) via Trimesoyl; not fully specified (bridges); printed as bicyclo[Tm-(D-4-Fpa-Fpa-D-Thr-Pip-Nal-Arg-Ala-D-Phe)-Dap-(Phe-Nal-Arg-Arg-Arg-Arg-Dap)]-Lys
In turn, B8 registered a Kd in experiment [1] of 120 nM. For the same molecule, the IC50 in experiment [2] was found to be 190 nM. This molecule came in with a Kd in experiment [3] of 20000 nM. In experiment [4], the IC50 of HeLa cell growth (MTT assay) was determined as 1000 nM; the IC50 of Pin1 catalytic activity toward Suc-Ala-Glu-Pro-Phe-pNA was 170 nM; the PML protein level in HeLa cells (western blot), 0.2 µM inhibitor turned out to be 1.8 fold; the PML protein level in HeLa cells (western blot), plateau at ˜1 µM inhibitor turned out to be 3.3 fold.

B9: peptide 19 (Table 18) (peptide)
peptide: Trimesoyl-P[Sar][dD][Pip′][2Nal]RR[dA][Dap]F[2Nal]RRRR[Dap]K-NH2
modifications: linker (positions not given here) via Trimesoyl; not fully specified (some residues, bridges); printed as bicyclo[Tm-(Pro-Sar-D-Asp-Pip-Nal-Arg-Arg-D-Ala)-Dap-(Phe-Nal-Arg-Arg-Arg-Arg-Dap)]-Lys
B9 came in with a Kd in experiment [1] of 720 nM.

B10: peptide 25 (Table 18) (peptide)
peptide: Trimesoyl-P[Sar][dD][Pip′][2Nal]RR[dD][Dap]F[2Nal]RRRR[Dap]K-NH2
modifications: linker (positions not given here) via Trimesoyl; not fully specified (some residues, bridges); printed as bicyclo[Tm-(Pro-Sar-D-Asp-Pip-Nal-Arg-Arg-D-Asp)-Dap-(Phe-Nal-Arg-Arg-Arg-Arg-Dap)]-Lys
In turn, B10 came in with a Kd in experiment [1] of 4600 nM.

B11: peptide 23 (Table 18) (peptide)
peptide: Trimesoyl-P[Sar][dD][Pip′][2Nal]RR[dV][Dap]F[2Nal]RRRR[Dap]K-NH2
modifications: linker (positions not given here) via Trimesoyl; not fully specified (some residues, bridges); printed as bicyclo[Tm-(Pro-Sar-D-Asp-Pip-Nal-Arg-Arg-D-Val)-Dap-(Phe-Nal-Arg-Arg-Arg-Arg-Dap)]-Lys
The molecule B11 had a dissociation constant Kd in experiment [1] of 1920 nM.

B12: peptide 29 (Table 18) (peptide)
peptide: Trimesoyl-[dF][Phe(3,4-F2)][dT][Pip′][2Nal]RA[dF][Dap]F[2Nal]RRRR[Dap]K
modifications: linker (positions not given here) via Trimesoyl; not fully specified (C-terminus, bridges); printed as bicyclo[Tm-(D-Phe-3,4-diFPhe-D-Thr-Pip-Nal-Arg-Ala-D-Phe)-Dap-(Phe-Nal-Arg-Arg-Arg-Arg-Dap)]-Lys
B12 displayed a Kd in experiment [1] of 410 nM. Against the preceding molecule, the Kd is about 4.7-fold lower.

B13: peptide 34 (Table 18) (peptide)
peptide: Trimesoyl-[dV][Phe(4-F)][dT][Pip′][2Nal]RA[dA][Dap]F[2Nal]RRRR[Dap]K
modifications: linker (positions not given here) via Trimesoyl; not fully specified (C-terminus, bridges); printed as bicyclo[Tm-(D-Val-4-Fpa-D-Thr-Pip-Nal-Arg-Ala-D-Ala)-Dap-(Phe-Nal-Arg-Arg-Arg-Arg-Dap)]-Lys
In turn, B13 had a Kd in experiment [1] of 1070 nM.

B14: peptide 24 (Table 18) (peptide)
peptide: Trimesoyl-P[Sar][dD][Pip′][2Nal]RR[dR][Dap]F[2Nal]RRRR[Dap]K-NH2
modifications: linker (positions not given here) via Trimesoyl; not fully specified (some residues, bridges); printed as bicyclo[Tm-(Pro-Sar-D-Asp-Pip-Nal-Arg-Arg-D-Arg)-Dap-(Phe-Nal-Arg-Arg-Arg-Arg-Dap)]-Lys
In turn, B14 gave a Kd in experiment [1] of 1310 nM.

B15: peptide 32 (Table 18) (peptide)
peptide: Trimesoyl-[dF][Phe(4-Br)][dT][Pip′][2Nal]RA[dF][Dap]F[2Nal]RRRR[Dap]K
modifications: linker (positions not given here) via Trimesoyl; not fully specified (C-terminus, bridges); printed as bicyclo[Tm-(D-Phe-4-BrPhe-D-Thr-Pip-Nal-Arg-Ala-D-Phe)-Dap-(Phe-Nal-Arg-Arg-Arg-Arg-Dap)]-Lys
As to B15, in experiment [1], the Kd was determined as 1780 nM.
